Measured values from the supplement of paper PMC9170038.

Test system: MS2 coat protein
Assay: apparent KD of MS2 coat protein; designed switch direction (-1 OFF switch, 1 ON switch): -1; higher = weaker reporter binding
Method in brief: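 The apparent KD reported per design is the median over clusters of curve fits to normalised cluster fluorescence. The RNA switches were transcribed on Illumina chips by stalled E. coli RNA polymerase. SNAP-549-labelled MS2 coat protein was titrated from 0.7 or 1.5 nM, doubling up to 3 µM, in Tris-HCl pH 7.5 buffer containing KCl, MgCl2, BSA, DTT, tRNA and Tween-20, with no input, 200 uM small-molecule ligand, or an oligonucleotide input.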

[1] = input ligand: microRNA oligo, concentration not stated
[2] = Eterna round: R95, input ligand: microRNA oligo, concentration not stated
[3] = Eterna round: R95, input ligand: FMN 200 uM
[4] = Eterna round: R95, input ligand: none

Sequence	apparent KD of MS2 coat protein (input ligand: FMN 200 uM)	apparent KD of MS2 coat protein (input ligand: none)	apparent KD of MS2 coat protein [1]	apparent KD of MS2 coat protein [2]	apparent KD of MS2 coat protein [3]	apparent KD of MS2 coat protein [4]
GCUACCAGAGUGAGGAUAUCGGAUGCGCAAGCACACGAGAAGGCACAUGAGGAUCACCCAUGUAUGGUAGCCGU [eternacac ex4r4 #9] (Eterna round: R97, puzzle: Brourd's mod of Exclusion 4)	13.2 nM	39.1 nM	–	–	–	–
GCUAUGACUGUGAGGAUAUGGACCGGGCUCUCGGAUUAGAAGGCACAUGAGGAUCACCCAUGUGAUCACGUACU [Eternabot (L2) Solution 87] (Eterna round: R97, puzzle: Brourd's mod of Exclusion 4)	42.2 nM	27.5 nM	–	–	–	–
GCUCAGAUGACAGGAUAUCACGCCUGGCAGAUGGGCGACAUGAGGAUCACCCAUGUCCAGCACGAUGAGAAGGGUUAUCGGGCG [Ririorti] (Eterna round: R96, puzzle: Exclusion NG 2)	195 nM	96.4 nM	94.2 nM	–	–	–
GCUCAGUAAGGAUAUUGUUUAGGAGCUAUAGGCGUAGUUAACAAGAAGGUACAUGAGGAUCACCCAUGUCCAUC [Eternabot (L2) Solution 36] (Eterna round: R97, puzzle: Exclusion 4)	17.7 nM	15.1 nM	–	–	–	–
GCUCGUGGGCAAGGAUAUCCUACGCUGUUCUGGUUCGUGUCUGUCACAUGAGGAUCACCCAUGUGGGAGAAGGUGCACCAGGGU [Design 51] (Eterna round: R96, puzzle: Exclusion NG 2)	10.8 nM	14 nM	9.67 nM	–	–	–
GCUGCAAGAGGAUAUACAUGAGGAUCACCCAUGUGAAAUUAUAGUGAGGAAAUGAAAAGUAGAAGGCUUGUAGA [Mod of Mat 15 - Jieux - Exclusion 3] (Eterna round: R97, puzzle: Exclusion 3)	86.6 nM	38.1 nM	–	–	–	–
GCUGCACAUGUAGGAUAUCUGCACGAUUAGUGCAGAGAAGGACAUGAGGAUCACCCAUGUAGAUCAGCAGCAAUUAAUUUAAUU [ENG1/6-A1] (Eterna round: R96, puzzle: Exclusion NG 1)	232 nM	400 nM	241 nM	–	–	–
GCUGCGCGAGGAUAUGCGGUUCGCGCUGUGGCCCGUGGCGGACAUGAGGAUCACCCAUGUAGAAGGCGUGCGGG [Apr-15 SS2-58] (puzzle: Exclusion 2)	–	–	–	10.3 nM	–	–
GCUGCGCGAGGAUAUGCGGUUUGUGCUUUGGGCCCUGGCGUACAUGAGGAUCACCCAUGUAGAAGGCGUGUGGG [Apr-15 SS2-51] (puzzle: Exclusion 2)	–	–	–	32.8 nM	–	–
GCUGGAAAAGGAUAUACAUAACGUGCGUCGGCACGAGAUCUACAUGAGGAUCACCCAUGUAGAAGGUUUCCAGC [EX2 #73] (Eterna round: R97, puzzle: Exclusion 2)	33.4 nM	14.3 nM	–	–	–	–
GCUUCUGGGCAAGGAUAUCCUGCGCUGUUCUGGUUCGUGUCUGUCACAUGAGGAUCACCCAUGUGGGAGAAGGUGCCUGUGGUG [Design 69] (Eterna round: R96, puzzle: Exclusion NG 2)	18.8 nM	19.5 nM	11.3 nM	–	–	–
GCUUGAGCAGGAUAUACAAUGAGCUUGAGAAAUCGAGUUCGACAUGAGGAUCACCCAUGUAGAAGGGUUCGAGU [-27.3, -25 kcal, A 31% 1 and 1bis] (Eterna round: R97, puzzle: Exclusion 2)	38.4 nM	24.3 nM	–	–	–	–
GCUUGUGUUGAGGAUAUGCGCCGGCUCGCUGGCGCAGAAGGCGGCACAUGAGGAUCACCCAUGUCAGUUCGCGU [salish99_ex6_r004_010] (Eterna round: R97, puzzle: Exclusion 6)	428 nM	38 nM	–	–	–	–
GCUUUUCUUUUCCUUUCUUACAUGAGGAUCACCCAUGUUUCUUGUCCUGCUCGCGUUGCUCGUCUGUCUGUCUGUUG [salish99_TOv1_r3_080] (puzzle: Sensor v3, turn-off variant 1)	–	–	–	24.3 nM	28.7 nM	31.2 nM
GCUUUUUGUGUAGGAUAUCGCGCGCGGCGUGUGUGAGAAGGACAUGAGGAUCACCCAUGUAGCAACGGCGGCGCUGGUGUUGUC [-27, -24 kcal and 18% A] (Eterna round: R96, puzzle: Exclusion NG 1)	16.7 nM	19.5 nM	10.7 nM	–	–	–
GGAAGUAGAAACCGAUCCUACAUGAGGAUCACCCAUGUAGCAAGACGUGCACGCGAAGCUCGUCAGACUACCAGAAC [salish99_TOv1_r3_012] (puzzle: Sensor v3, turn-off variant 1)	–	–	–	383 nM	204 nM	521 nM
GGAAUGAGAGAGGAUAUGGGAGGGAGGACCGGACCAGAAGGCUCGACAUGAGGAUCACCCAUGUGGAGAUCCUC [AK-MS2ROC-r4-exclusion6-6.11] (Eterna round: R97, puzzle: Exclusion 6)	236 nM	1480 nM	–	–	–	–

Sequence	apparent KD of MS2 coat protein (input ligand: FMN 200 uM)	apparent KD of MS2 coat protein (input ligand: none)	apparent KD of MS2 coat protein [1]	apparent KD of MS2 coat protein [2]	apparent KD of MS2 coat protein [3]	apparent KD of MS2 coat protein [4]
GGACACUGAGGAUAUACAAUUCAGGUCCUCCUGUAGAGUAUACAUGAGGAUCACCCAUGUAGAAGGCAGACCAA [Aronberiat] (Eterna round: R97, puzzle: Exclusion 2)	344 nM	44.9 nM	–	–	–	–
GGACAGCGAGGAUAUACGUGUACGUUAUCCUCUAUGGGUCAACAUGAGGAUCACCCAUGUAGAAGGCGCAUAAU [Mabima] (puzzle: Exclusion 2)	–	–	–	18.7 nM	–	–
GGACGGUAAGUGAGGAUAUGCUCUACCUCGGUAGAGCAGAAGGCACAUGAGGAUCACCCAUGUGAAAACUGUUC [Omei Ex4B B31] (Eterna round: R97, puzzle: Brourd's mod of Exclusion 4)	21.5 nM	15 nM	–	–	–	–
GGAGAGUCAGGAUAUCGAAGGUAGAGAAGAGGAGAGUGGUACGAGAAGGGACAUGAGGAUCACCCAUGUAGGUG [JR_Exclusion4)Sub011] (puzzle: Exclusion 4)	–	–	–	645 nM	457 nM	452 nM
GGAGCGAUUCUCUUAGCAGACAUGAGGAUCACCCAUGUAUGCAAGCUCUUAUUUUGCUCGUCUUACCGGGAGUUGCU [Ridizaer] (puzzle: Sensor v3, turn-off variant 1)	–	–	–	20.7 nM	13.6 nM	13 nM
GGAGCGAUUCUCUUAGCUGACAUGAGGAUCACCCAUGUAUGCAAGCUCUUAUUUUGCUCGUCUUACCGGGAAUUGCU [Uslainar] (puzzle: Sensor v3, turn-off variant 1)	–	–	–	18.5 nM	14.8 nM	13.2 nM
GGAGGACGAGCAGGAUAUUUUCACAUGAGGAUCACCCAUGUGUAUUCAGGGUAAUCUUCCGCCGAAAAGAAGGGUUCGGAAGAA [JL ViennaUCT Socedi mod 3] (Eterna round: R96, puzzle: Exclusion NG 2)	47.1 nM	25.9 nM	27.4 nM	–	–	–
GGAUAAAACUGAGGAUAUACGCACCACUAACGAGUAGAAGGCAGACAUGAGGAUCACCCAUGUGAGUUCUCAAUAAGAAACACG [Prohibition 66 - Jieux - Exclusion NG 1] (Eterna round: R96, puzzle: Exclusion NG 1)	192 nM	85.1 nM	88.9 nM	–	–	–
GGAUCACAUGUCAGGAUAUGCAGGUCCUUGGAUCUGCAGAAGGGACAUGAGGAUCACCCAUGUCAUGAAGAUCC [Mat - Exclusion 4 - Eli Mod - D51] (Eterna round: R97, puzzle: Brourd's mod of Exclusion 4)	945 nM	145 nM	–	–	–	–
GGAUCGAAUGUGAGGAUAUACCUAUGGAUACAUAGGUAGAAGGCACAUGAGGAUCACCCAUGUCCUAACGGUCC [Eli bmx4 4.14] (Eterna round: R97, puzzle: Brourd's mod of Exclusion 4)	479 nM	347 nM	–	–	–	–
GGAUCGAGUGUGAGGAUAUACCUAUGGAUACAUAGGUAGAAGGCACAUGAGGAUCACCCAUGUCCUAACGGUCC [Eli bmx4 4.15] (Eterna round: R97, puzzle: Brourd's mod of Exclusion 4)	933 nM	308 nM	–	–	–	–
GGAUCUACUGAGGAUAUUACAUCACCCGACUGAUAAGAAGGCAGAACAUGAGGAUCACCCAUGUGGGUAGCCAA [Polaris4] (Eterna round: R97, puzzle: Exclusion 6)	25.7 nM	21.3 nM	–	–	–	–
GGAUUACAUGAGGAUCACCCAUGUGAGGAUAUCCCGACAGGUUGCAGAGAACCUCGUAGGAGAAGGCACAGGCG [EX1 B.12] (Eterna round: R97, puzzle: Exclusion 1)	234 nM	102 nM	–	–	–	–
GGCAAAGUAGGAUAUACAUGAGGAUCACCCAUGUUUCCAGAUGGCGUAGGUCUUCUUUGUAGAAGGGCUAUGCC [Ananinge] (Eterna round: R97, puzzle: Exclusion 3)	20.1 nM	15.2 nM	–	–	–	–
GGCAAUAACGAGGAUAUCGUAUGGGAAACCAUACGAGAAGGUGUAACAUGAGGAUCACCCAUGUUCCUCAAGCC [Mat - Exclusion 6 - Eli Mod - D66] (puzzle: Exclusion 6)	–	–	–	34.6 nM	35.3 nM	40 nM
GGCACACAUGUAGGAUAUCUGCACGAUUAGUGCAGAGAAGGACAUGAGGAUCACCCAUGUAAUUAAGAUCAAUUAUUAAGUGCC [ENG1/3-A1] (Eterna round: R96, puzzle: Exclusion NG 1)	468 nM	54.6 nM	50 nM	–	–	–
